The target of experiment [1] is T1, N-terminal His-tagged LsrK (E. coli, UniProt P77432 1-530).
T1 sequence (looked up): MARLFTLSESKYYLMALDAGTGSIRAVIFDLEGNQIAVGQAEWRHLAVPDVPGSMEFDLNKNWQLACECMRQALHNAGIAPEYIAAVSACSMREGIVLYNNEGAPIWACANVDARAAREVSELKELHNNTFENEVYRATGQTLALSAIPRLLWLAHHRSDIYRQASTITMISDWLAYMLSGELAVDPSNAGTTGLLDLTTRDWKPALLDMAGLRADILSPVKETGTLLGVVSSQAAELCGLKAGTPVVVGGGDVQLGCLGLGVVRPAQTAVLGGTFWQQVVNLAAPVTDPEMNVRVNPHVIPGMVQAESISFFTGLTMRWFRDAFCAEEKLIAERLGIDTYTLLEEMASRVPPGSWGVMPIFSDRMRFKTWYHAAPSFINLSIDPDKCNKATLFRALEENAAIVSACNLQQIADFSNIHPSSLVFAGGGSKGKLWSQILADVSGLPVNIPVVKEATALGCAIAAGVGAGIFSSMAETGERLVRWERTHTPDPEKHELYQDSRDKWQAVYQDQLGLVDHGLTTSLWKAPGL
The experiment in a line: enzyme inhibition kinetics.

In experiment [2] the target is T1, N-terminal His-tagged LsrK. The experiment is described as follows: enzyme inhibition kinetics. This is another data set of the same source.

Like-named read-outs stand apart in the source and are kept apart here.

B1: C-terminal six-His-tagged HPr H15E (natural protein)
chain: not shown
One may read the Ki as the equilibrium dissociation constant of an inhibitor or competing ligand from its target. The low end stands for tighter binding, the high end for weaker binding. With B1, in experiment [1], the affinity corresponds to a Ki of 1200 ± 200 nM and the “fold lower inhibition activity than WT HPr” value was approximately 5 fold.

B2: phosphorylated HPr (natural protein)
chain: not shown
modifications: phosphate group at the H15-ND1 atom (phosphohistidine 15); ^15N-labelled
As for B2, the Ki in experiment [2] amounted to 8400 ± 500 nM.

B3: native HPr protein (expressed alone, intact form) (natural protein)
chain: not shown
B3 came in with a Ki in experiment [2] of 320 ± 70 nM.

The record behind these values is PMC5983913 (Science Advances, 2018).
